Assay results taken from publication PMC10454365.

Target: Recombinant human LY6K protein (LY6K-Wt) (human) (UniProt Q17RY6)
Assay: SPR; LY6K immobilised on a CM5 chip by amine coupling (~6200–7000 RU); TbR1 injected at various concentrations, 50 μL/min; Biacore T200, 25 °C; running buffer PBS-P + 5% DMSO; 1:1 kinetics binding model

B1: Recombinant human TbR1 protein (receptor)
chain: LQCFCHLCTKDNFTCVTDGLCFVSVTETTDKVIHNSMCIAEIDLIPRDRPFVCAPSSKTGSVTTTYCCNQDHCNKIELPTTVKSSPGLGPVEL
With B1 the Kd was 9.2 nM, the koff was 0.000468 s⁻¹ and the kon was 51000 M⁻¹ s⁻¹.
